Source: US7803377B2, “Anti-DLL4 antibodies and methods using same” (Genentech, Inc., priority 2006, dated 2010)

Target: T1, DLL1 (Homo sapiens, UniProt O00548)
T1 sequence (O00548 18-723): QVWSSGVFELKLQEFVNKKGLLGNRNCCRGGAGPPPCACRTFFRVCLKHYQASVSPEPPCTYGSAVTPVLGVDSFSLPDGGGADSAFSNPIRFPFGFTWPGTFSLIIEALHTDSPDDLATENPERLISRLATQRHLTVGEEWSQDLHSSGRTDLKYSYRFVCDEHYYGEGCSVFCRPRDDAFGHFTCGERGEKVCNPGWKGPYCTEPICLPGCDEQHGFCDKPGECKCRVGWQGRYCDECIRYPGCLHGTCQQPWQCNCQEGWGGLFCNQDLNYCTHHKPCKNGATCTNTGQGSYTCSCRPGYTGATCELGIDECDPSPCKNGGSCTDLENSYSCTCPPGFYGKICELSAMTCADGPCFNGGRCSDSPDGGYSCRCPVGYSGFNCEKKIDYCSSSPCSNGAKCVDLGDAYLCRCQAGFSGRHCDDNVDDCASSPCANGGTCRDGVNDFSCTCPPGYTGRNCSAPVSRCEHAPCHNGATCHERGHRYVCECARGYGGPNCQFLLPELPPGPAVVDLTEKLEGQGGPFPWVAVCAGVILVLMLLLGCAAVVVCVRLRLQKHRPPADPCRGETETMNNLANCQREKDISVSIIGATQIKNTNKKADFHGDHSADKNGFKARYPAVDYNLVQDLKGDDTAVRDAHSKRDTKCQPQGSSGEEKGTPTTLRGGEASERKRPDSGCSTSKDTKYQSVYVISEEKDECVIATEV
Assay: ELISA binding to coated purified recombinant proteins
Details: plates coated with recombinant protein 1 μg/ml
Description: 96-well Nunc Maxisorp plates were coated with purified recombinant proteins as indicated (1 μg/ml). […] Bound antibodies were detected with anti-human antibody HRP conjugate using TMB as substrate and OD 450 nm absorbance measurement. Anti-HER2 and recombinant ErbB2-ECD were used as assay control (FIG. 11b).

Q: Which “binding by ELISA” value does the source give for “YW26.82: affinity matured anti-DLL4 monoclonal antibody; HVR-H1/H2/H3 SEQ ID NO:1, 8, 9; HVR-L1/L2/L3 SEQ ID NO:10, 11, 18” here?
A: did not delectably bind
